Reference: paper PMC2148453

Legend:
[1] = target: microtubules (taxol-stabilised, polymerised from PC-tubulin; tubulin alpha-beta heterodimer) (UniProt P02550); assay: cryo-EM structure
[2] = target: microtubules (taxol-stabilised, polymerised from PC-tubulin; tubulin alpha-beta heterodimer) (UniProt P02550); assay: co-sedimentation

Sequence of UniProt P02550 (P02550 whole entry, looked up, one chain of several): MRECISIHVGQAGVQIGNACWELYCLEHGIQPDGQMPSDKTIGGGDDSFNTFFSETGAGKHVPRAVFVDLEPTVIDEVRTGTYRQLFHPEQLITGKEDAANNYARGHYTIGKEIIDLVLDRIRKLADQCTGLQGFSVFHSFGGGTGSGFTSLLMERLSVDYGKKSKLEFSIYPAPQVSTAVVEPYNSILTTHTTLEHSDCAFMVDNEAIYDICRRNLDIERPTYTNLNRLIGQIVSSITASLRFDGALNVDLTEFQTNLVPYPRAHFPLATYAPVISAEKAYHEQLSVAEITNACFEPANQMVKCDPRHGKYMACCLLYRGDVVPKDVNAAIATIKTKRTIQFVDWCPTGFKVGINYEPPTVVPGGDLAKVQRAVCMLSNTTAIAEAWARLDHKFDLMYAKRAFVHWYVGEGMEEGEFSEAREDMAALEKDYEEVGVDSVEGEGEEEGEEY

Row | stoichiometry N (kinesin head per tubulin heterodimer) [1] | Kd [2] [nM] | stoichiometry N (kinesin heads per tubulin dimer) [2] | stoichiometry N (head per tubulin dimer) [1] | stoichiometry N (head per tubulin heterodimer) [1] | Substance
1 | 1 | – | – | – | – | rat kinesin construct rK354 (from UniProt P56536 1-354) (domain or fragment)
2 | – | 400 | 1.1 | 1 | 1 | rat kinesin construct rK379 (from UniProt P56536 1-379) (domain or fragment)
